“Also recorded” adds a separate entry of the source.
Legend:
[1] = system: 12 week human fetal distal epithelial lung buds; experiment: Isolated human fetal lung bud culture in Matrigel: growth/expansion; type: cell-based; conditions: FGF7 alone, 2, 4 and 6 weeks in culture
Text: All research utilizing human fetal tissue was approved by the University of Michigan institutional review board. Normal human fetal lungs were obtained from the University of Washington Laboratory of Developmental Biology, and epithelial lung buds were dissected as described below. All experiments were repeated using tissues from 3 individual lungs; 84 day post fertilization of unknown gender, 87 day post fertilization male, and 87 day post fertilization of unknown gender. All tissues were shipped in Belzer's solution at 4 degrees Celsius and were processed and in culture within 24 hours of isolation.
Isolated mouse buds were cultured in 4-6 μl droplets of matrigel, covered with media, and kept at 37 degrees Celsius with 5% Carbon Dioxide. Isolated human fetal lung buds were cultured in 25-50 μl droplets of matrigel, covered with media, and kept at 37 degrees Celsius with 5% Carbon Dioxide.
Distal regions of 12 week fetal lungs were cut into ˜2 mm sections and incubated with dispase, 100% FBS and then 10% FBS as described above, and moved to a sterile petri dish. Mesenchyme was removed by repeated pipetting of distal lung pieces after dispase treatment. Buds were washed with DMEM until mesenchymal cells were no longer visible in the media. Buds were then moved to a 1.5 mL eppendorf tube containing 200 uL of Matrigel, mixed using a p200 pipette, and plated in ˜20 uL droplets in a 24 well tissue culture plate. Plates were placed at 37 degrees Celsius with 5% CO2 for 20 minutes while droplets solidified. 500 uL of media was added to each well containing a droplet. Media was changed every 2-3 days.
All mouse bud, human fetal bud, and hPSC-derived human lung organoids were grown in low-serum basal media (basal media) with added growth factors. […]

[2] = system: hPSC-derived human lung organoids (HLOs); experiment: Marker expression (QRT-PCR, immunofluorescence) in HLOs; type: cell-based; conditions: 42 days 3F then 26 days FGF7 only
Description: Based on results in the mouse showing that FGF7 was permissive for differentiation (FIG. 1), experiments were conducted that hypothesized that removing CHIR-99021 and RA from HLOs grown in 3F media would reduce the number of progenitor cells and increase differentiation of mature cell types within HLO cultures. Foregut spheroids were collected and grown in 3F media for 42 days and were cultured for an additional 26 days in 3F media (control) or media containing FGF7 only (FIG. 10A). […] At the end of the experiment, cultures were collected and assessed for gene and protein expression.
RNA was extracted using the MagMAX-96 Total RNA Isolation System (Life Technologies). RNA quality and concentration was determined on a Nanodrop 2000 spectrophotometer (Thermo Scientific). 100 ng of RNA was used to generate a cDNA library using the SuperScript VILO cDNA master mix kit (Invitrogen) according to manufacturer's instructions. qRT-PCR analysis was conducted using Quantitect SYBR Green Master Mix (Qiagen) on a Step One Plus Real-Time PCR system (Life Technologies). Expression was calculated as a change relative to GAPDH expression using arbitrary units, which were calculated by the following equation: [2^(GAPDH Ct−Gene Ct)]×10,000. A Ct value of 40 or greater was considered not detectable. A list of primer sequences used can be found in Table 1.
Mouse bud, human bud, and HLO tissue was fixed in 4% Paraformaldehyde (Sigma) for 2 hours and rinsed in PBS overnight. Tissue was dehydrated in an alcohol series, with 30 minutes each in 25%, 50%, 75% Methanol:PBS/0.05% Tween-20, followed by 100% Methanol, and then 100% Ethanol. Tissue was processed into paraffin using an automated tissue processor (Leica ASP300). Paraffin blocks were sectioned 5-7 uM thick, and immunohistochemical staining was performed as previously described (Spence et al., 2009). A list of antibodies, antibody information and concentrations used can be found in Table 2. PAS Alcian blue staining was performed using the Newcomer supply Alcian Blue/PAS Stain kit (Newcomer Supply, Inc.) according to manufacturer's instructions.

B1: Recombinant Human Fibroblast Growth Factor 7 (protein, UniProt P21781 32-194, looked up)
Fibroblast growth factor 7: CNDMTPEQMATNVNCSSPERHTRSYDYMEGGDIRVRRLFCRTQWYLRIDKRGKVKGTQEMKNNYNIMEIRTVAVGIVAIKGVESEFYLAMNKEGKLYAKKECNEDCNFKELILENHYNTYASAKWTHNGGEMFVALNQKGIPVRGKKTKKEQKTAHFLPMAIT
notes: Recombinant human growth factor from R&D systems, used at 10 ng/mL unless otherwise noted
- Growth of human fetal lung buds in vitro [1]: robust growth in vitro after 2 and 4 weeks, but resulted in reduced growth after 6 weeks; also recorded: supported an initial expansion of buds, but the tissue stopped expanding beyond the 4 week period
- AECI marker HOPX gene expression ([2]; versus 3F): increased gene expression
- AECII marker SFTPC protein and mRNA expression ([2]; versus 3F): increase in both protein and mRNA expression
- FOXJ1 mRNA expression (QRT-PCR) ([2]; versus 3F): increased significantly
- MUC5AC gene expression (QRT-PCR) ([2]; versus 3F): significant increase
- P63 mRNA expression (QRT-PCR) ([2]; versus 3F): significant increase in mRNA expression
- SOX2 transcript (QRT-PCR) ([2]; versus 3F): significant increase
- SOX9 transcript (QRT-PCR) ([2]; versus 3F): no change
- Increase of SCGB1A1 mRNA level over 3F controls ([2]; not statistically significant): ~100 fold
